± gives the standard deviation of the averaged measurements.
Tested on: ATP
Experiment: switch fluorescence ratio, 500 uM ATP over buffer (Cy3 cluster intensity, sum of 5 cycles each) (fold (ratio)); higher = stronger signal-on switching upon ATP binding; sequences stand for … in TCGTCGGCAGCGTCAGATGTGTATAAGAGACAGTTTTTTTTTTTTTTTTTTTTTTTTT…TC
Conditions: aptamer strand: ATP DNA aptamer (quencher-CACCTGGGGGAGTATTGCGGAGGAAGG + anchor), 100 nM annealed; ATP concentration: 500 uM
In short: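 The quencher-labelled ATP aptamer, at 100 nM, was annealed to Cy3-labelled switching-strand clusters on a modified Illumina MiSeq flow-cell. The clusters were imaged in selection buffer, then after 15 min with 500 uM ATP at 22 °C, and this buffer/ATP cycle ran five times with NaOH stripping and re-annealing between runs. Per-cluster fluorescence ratios, summed target-cycle over summed buffer-cycle Cy3 intensity, were averaged per switch-domain sequence. Clusters outside 100-1000 RFU were excluded.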
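Also: ATP exposure 15 min at 22 °C before imaging.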

| Sequence | switch fluorescence ratio |
| --- | --- |
| CCATTATGGT | 1.01 ± 0.03 |
| CCATTCAGGT | 1.04 ± 0.065 |
| CCATTCATAG | 0.973 ± 0.022 |
| CCATTGAATG | 1.02 ± 0.015 |
| CCATTGATGT | 1.02 ± 0.023 |
| CCATTTGACC | 1.04 ± 0.014 |
| CCATTTGTT | 1.04 ± 0.035 |
| CCATTTTTGG | 0.992 ± 0.011 |
| CCCAATAGTG | 1.35 ± 0.042 |
| CCCACTACAT | 1.06 ± 0.035 |
| CCCAGGCCCG | 1.058 ± 0.0088 |
| CCCATCTTTT | 1 ± 0.0025 |
| CCCATGCAAG | 1.3 ± 0.32 |
| CCCATGCCCG | 1.04 ± 0.021 |
| CCCATGTTTC | 1.02 ± 0.023 |
| CCCCGAGGAT | 1.14 ± 0.022 |
| CCCCTTGTTC | 1.01 ± 0.02 |
| CCCGAAGTCT | 1.05 ± 0.012 |
| CCCGAGCCTC | 1.36 ± 0.1 |
| CCCGAGTTAT | 1.067 ± 0.01 |
| CCCGATGCGC | 1.42 ± 0.51 |
| CCCGGAAGTG | 1.24 ± 0.018 |
| CCCGGCGAT | 1.85 ± 1.2 |

| Sequence | switch fluorescence ratio |
| --- | --- |
| CCCGGGAAAA | 0.943 ± 0.03 |
| CCCGGGGGGA | 1.55 ± 0.7 |
| CCCGGGGTGT | 3.55 ± 0.15 |
| CCCGTAGTTA | 1.19 ± 0.042 |
| CCCGTGGGGA | 1.2 ± 0.15 |
| CCCGTTGGTT | 1.27 ± 0.34 |
| CCCGTTTGGG | 0.981 ± 0.023 |
| CCCTAACCCG | 1.18 ± 0.055 |
| CCCTAGGTTT | 1.73 ± 0.79 |
| CCCTCACTTA | 1.08 ± 0.049 |
| CCCTGGGGGT | 1.15 ± 0.067 |
| CCCTGGTGGG | 1.04 ± 0.11 |
| CCCTTAGTGC | 1.14 ± 0.022 |
| CCCTTAGTGT | 1.04 ± 0.031 |
| CCCTTTATTT | 1.29 ± 0.36 |
| CCCTTTTTAT | 0.986 ± 0.014 |
| CCGAAAATGA | 1.35 ± 0.49 |
| CCGAAGACAG | 3.11 ± 0.21 |
| CCGAAGGGGT | 1.18 ± 0.16 |
| CCGAAGGGTT | 1.02 ± 0.077 |
| CCGAGAGGGT | 1.06 ± 0.069 |
| CCGAGGGTG | 1.81 ± 0.098 |
| CCGAGGTATC | 3.23 ± 2.1 |

| Sequence | switch fluorescence ratio |
| --- | --- |
| CCGAGTGGGC | 1.09 ± 0.012 |
| CCGATACGGG | 1.072 ± 0.0082 |
| CCGATGATTT | 1.5 ± 0.56 |
| CCGATTTGGC | 1.14 ± 0.044 |
| CCGCATGCTT | 2.76 ± 2 |
| CCGCCGGGGG | 1.09 ± 0.041 |
| CCGCGAGGGT | 1.57 ± 0.29 |
| CCGCGGGATT | 1.28 ± 0.32 |
| CCGCGGGGAG | 1.1 ± 0.041 |
| CCGCTAGCCT | 2.94 ± 0.53 |
| CCGCTTAGAT | 2.34 ± 0.23 |
| CCGGAAATGA | 1.02 ± 0.054 |
| CCGGACTCTT | 1.11 ± 0.015 |
| CCGGAGGGGA | 1.27 ± 0.18 |
| CCGGATAGTG | 1.03 ± 0.026 |
| CCGGCAGGAT | 0.988 ± 0.011 |
| CCGGGACAGC | 1.17 ± 0.077 |
| CCGGGAGCGC | 1.98 ± 0.83 |
| CCGGGGAATC | 2.19 ± 0.57 |
| CCGGGGACCC | 1.13 ± 0.08 |
| CCGGGGATCA | 1.01 ± 0.024 |
| CCGGGGGACG | 1.06 ± 0.14 |
| CCGGGGGGAT | 1.55 ± 0.66 |

| Sequence | switch fluorescence ratio |
| --- | --- |
| CCGGGGGGTA | 1.37 ± 0.017 |
| CCGGGGGT | 1.036 ± 0.0046 |
| CCGGGGGTCC | 1.02 ± 0.019 |
| CCGGGGGTCG | 1.06 ± 0.074 |
| CCGGGGGTTA | 1.14 ± 0.23 |
| CCGGGGTGGC | 1.16 ± 0.11 |
| CCGGGGTTGA | 0.993 ± 0.074 |
| CCGGGGTTTG | 0.998 ± 0.019 |
| CCGGGTAAGG | 0.9989 ± 0.0045 |
| CCGGGTAGTT | 1.02 ± 0.074 |
| CCGGGTGACA | 1.25 ± 0.048 |
| CCGGGTTACT | 1.91 ± 0.044 |
| CCGGGTTGCA | 1.03 ± 0.04 |
| CCGGGTTTAG | 1.03 ± 0.023 |
| CCGGGTTTGT | 1.05 ± 0.03 |
| CCGGTACGTC | 1.12 ± 0.044 |
| CCGGTACTAT | 1.167 ± 0.0092 |
| CCGGTATAAT | 1.144 ± 0.0026 |
| CCGGTATATC | 2.517 ± 0.025 |
| CCGGTTAAAC | 1.64 ± 0.06 |
| CCGGTTAGAG | 1.05 ± 0.014 |
| CCGGTTGGTG | 1 ± 0.036 |
| CCGGTTTTCG | 1.09 ± 0.036 |

| Sequence | switch fluorescence ratio |
| --- | --- |
| CCGGTTTTGC | 1.21 ± 0.14 |
| CCGTAGAGGG | 1.38 ± 0.043 |
| CCGTAGGAAT | 1.28 ± 0.068 |
| CCGTAGGTTT | 1.06 ± 0.037 |
| CCGTCAAGGA | 1.94 ± 1.2 |
| CCGTCGGCGC | 1.08 ± 0.019 |
| CCGTCGTACG | 1.06 ± 0.11 |
| CCGTCTGGCG | 0.9959 ± 0.0067 |
| CCGTGACAAT | 4.12 ± 0.34 |
| CCGTGAGGTA | 1 ± 0.026 |
| CCGTGCGTAT | 1.3 ± 0.062 |
| CCGTGGGGGG | 1.02 ± 0.083 |
| CCGTTCTGGG | 0.9786 ± 0.0026 |
| CCGTTGAATT | 1.008 ± 0.0056 |
| CCGTTGACCG | 1.07 ± 0.057 |
| CCGTTGGACT | 1.24 ± 0.067 |
| CCGTTGGGCT | 1.01 ± 0.025 |
| CCGTTGGGGC | 1.12 ± 0.059 |
| CCGTTGTATT | 1.12 ± 0.035 |
| CCGTTTATGA | 1.1 ± 0.047 |
| CCGTTTGAAA | 1.01 ± 0.006 |
| CCGTTTTGAA | 0.981 ± 0.057 |
| CCGTTTTTGC | 1.14 ± 0.09 |

| Sequence | switch fluorescence ratio |
| --- | --- |
| CCTAAAAGGG | 1 ± 0.032 |
| CCTAACCGTC | 1.156 ± 0.0056 |
| CCTAACGCAG | 2.32 ± 0.43 |
| CCTAATTTTA | 0.971 ± 0.043 |
| CCTACGGAAG | 2.07 ± 0.045 |
| CCTAGCAAGT | 3.19 ± 0.92 |
| CCTAGCCTGC | 1.16 ± 0.054 |
| CCTAGCGGTT | 1.1459 ± 0.00038 |
| CCTAGGGAGC | 1.07 ± 0.1 |
| CCTAGGGGGC | 1.24 ± 0.29 |
| CCTAGGGGGG | 1.17 ± 0.23 |
| CCTAGTCGGC | 1.0715 ± 0.00095 |
| CCTAGTGTTC | 0.9801 ± 0.0083 |
| CCTAGTTCGG | 0.997 ± 0.027 |
| CCTATAGAGT | 0.964 ± 0.02 |
| CCTATATTAA | 0.9853 ± 0.0066 |
| CCTATGGTTG | 0.997 ± 0.033 |
| CCTATTACTT | 1 ± 0.034 |
| CCTATTATTT | 1 ± 0.051 |
| CCTCATTGAC | 2.24 ± 0.15 |
| CCTCGAGGGT | 1.09 ± 0.07 |
| CCTCGATTCA | 1.03 ± 0.017 |
| CCTCTACTGG | 1.12 ± 0.042 |

| Sequence | switch fluorescence ratio |
| --- | --- |
| CCTCTGGGGA | 1.82 ± 0.94 |
| CCTGAAAGGT | 1.003 ± 0.0079 |
| CCTGACAGCG | 1.012 ± 0.0083 |
| CCTGAGAGAG | 1.034 ± 0.0052 |
| CCTGAGGAGG | 0.997 ± 0.014 |
| CCTGATCGAT | 1.01 ± 0.02 |
| CCTGATGGGG | 1.01 ± 0.017 |
| CCTGATTGAA | 0.991 ± 0.0088 |
| CCTGCATTTT | 1.3 ± 0.33 |
| CCTGCCAAGA | 2 ± 1.4 |
| CCTGCGGGG | 1.11 ± 0.022 |
| CCTGCGTAAG | 2.29 ± 0.11 |
| CCTGCTAAGT | 1 ± 0.058 |
| CCTGGAAATT | 1.02 ± 0.023 |
| CCTGGATATT | 0.997 ± 0.013 |
| CCTGGGCCCA | 1.09 ± 0.15 |
| CCTGGGTGGG | 1.12 ± 0.065 |
| CCTGGGTTTC | 1.008 ± 0.0052 |
| CCTGGGTTTT | 1.06 ± 0.05 |
